Data on 2 compounds can be found in paper PMC11055835, “Small animal PET imaging with the ^68Ga-labeled pH (low) insertion peptide-like peptide YJL-4 in a triple-negative breast cancer mouse model” (EJNMMI Radiopharmacy and Chemistry, 2024).

A short description of series [1]: In vivo biodistribution. More on the design: species or system BALB/c nude mice. The following applies: female, BALB/c nude, mouse, iv, 1.85 MBq/200 uL, total radioactivity. From the text:
Twenty-four four- to five-week-old female specific pathogen-free (SPF) BALB/c nude mice (Hangzhou Ziyuan Experimental Animal Technology Co., Ltd., China, license number: […] The animal studies were approved by the ethics committee of Qingdao University, and the management of the animals adhered to the animal ethics standards. Eighteen tumor-bearing nude mice were selected for in vivo biodistribution experiments when the tumor diameter reached 0.8–1.0 cm. Mice were randomly divided into two groups: a YJL-4 group and a control group with 9 mice per group; each group had three time points. […] The mice were humanely sacrificed 1 h, 2 h, or 4 h after injection. The brain, heart, lungs, liver, kidneys, stomach, small intestine, blood, muscles, bones, and tumor were collected and weighed, and the radioactivity was measured. The biodistribution results are expressed as the percent of the injected dose per gram of tissue (% ID/g).

Series [2] can be described thus: Serum stability in human serum. The format is in vitro ADME. The protocol: (§1) Two hundred microliters of each ^68Ga-labeled peptide (18.5 MBq) was mixed with 1.0 mL of fresh human serum (or mouse serum) and incubated at 37 °C, and the radiochemical purity was detected at 30, 60, 120, and 240 min after mixing.
Series [3] is described as follows: Serum protein binding. In kind it is in vitro ADME, mouse. The protocol: The resulting mixture was vortexed for 1 min and centrifuged (13,000 rpm) for 5 min. The supernatant was transferred to a 1.7 ml Eppendorf tube and then further centrifuged at 13,000 rpm for 2 min. The supernatant and sediment were collected separately, and the radioactivity was measured with a gamma counter to determine the serum protein binding of the radiotracer.

In series [4] the test system is MDA-MB-231 tumor-bearing nude mice. Kind of series: Small animal PET imaging. In kind it is in vivo, BALB/c nude mice. The note with it: 2 and 4 h after injection, approx. 7.4 MBq/200 μL via tail vein, static 10-min PET, n = 3. The protocol:
Human breast cancer cells (MDA-MB-231 cells from the Cell Bank of the Chinese Academy of Sciences) were cultured in high-glucose DMEM supplemented with 10% fetal bovine serum and 1% double antibiotic mixture (penicillin‒streptomycin mixture) at 37 °C in 5% CO2. Twenty-four four- to five-week-old female specific pathogen-free (SPF) BALB/c nude mice (Hangzhou Ziyuan Experimental Animal Technology Co., Ltd., China, license number: SCXK(Zhe) 2019–0004) were used to establish the MDA-MB-231 tumor model by subcutaneously inoculating 0.1 mL of cell suspension (50 µL of PBS + 50 µL of Matrigel) containing 1 × 10^6 MDA-MB-231 cells at the base of the right forelimb of each mouse. The animal studies were approved by the ethics committee of Qingdao University, and the management of the animals adhered to the animal ethics standards.
Six tumor-bearing nude mice were selected for imaging when the tumor diameter reached 0.8–1.0 cm. Mice were randomly divided into two groups: a YJL-4 group and a control group, with 3 mice per group; each group had two time points. Each tumor-bearing nude mouse was injected with approximately 7.4 MBq/200 μL of ^68Ga-YJL-4 or ^68Ga-kVar7 through the tail vein, and the mice were anesthetized with 2% isoflurane at 2 and 4 h after injection and imaged using static 10-min PET and moderate-resolution whole-body CT. […]

A short description of series [5]: Serum stability in mouse serum. The format is in vitro ADME. The procedure:
as §1

Read-outs that look alike come from different tables or passages of the source. Peptide text beside a SMILES is read from it. * marks the point of attachment. X1 = O=C(O)CN1CCN(CC(=O)O)CC(Cc2ccc(NC(=S)*)cc2)N(CC(=O)O)CC1; NOTA = O=C(O)CN1CCN(CC(=O)O)CCN(CC(=O)*)CC1; Ahx = NCCCCCC(=O)O

As to `CC(C)C[C@H](NC(=O)[C@H](CCCCN)NC(=O)[C@H](CC(C)C)NC(=O)[C@H](CC(C)C)NC(=O)[C@H](CC(C)C)NC(=O)[C@@H](NC(=O)[C@H](CCCCN)NC(=O)[C@@H](NC(=O)[C@@H]1CCCN1C(=O)[C@H](Cc1ccccc1)NC(=O)[C@H](CC(C)C)NC(=O)[C@H](Cc1c[nH]c2ccccc12)NC(=O)[C@H](CCCCN)NC(=O)[C@H](CC(C)C)NC(=O)[C@H](Cc1ccc(O)cc1)NC(=O)[C@H](CCCNC(=N)N)NC(=O)[C@H](C)NC(=O)[C@H](Cc1c[nH]c2ccccc12)NC(=O)[C@@H]1CCCN1C(=O)[C@H](CC(N)=O)NC(=O)[C@H](CCC(N)=O)NC(=O)[C@H](CCC(=O)O)NC(=O)[C@H](CCC(=O)O)NC(=O)[C@H](CS)NC(=O)[C@H](C)NC(=O)CN1CCN(CC(=O)O)CCN(CC(=O)O)CC1)[C@@H](C)O)[C@@H](C)O)C(N)=O` [^68Ga-kVar7, metal not drawn, reference compound] ({NOTA}-ACEEQNPWARYLKWLFPTKTLLLKL-NH2; N-terminus assumed), the tissue uptake at 1 h came out at 20.6 ± 4.73 %ID/g in series [1] (1 h after injection, 1.85 MBq/200 μL via tail vein, mean ± SD, n = 3, read-out: Distribution in the blood) and 21.3 ± 2.93 %ID/g in series [1] (1 h after injection, 1.85 MBq/200 μL via tail vein, mean ± SD, n = 3, read-out: Distribution in the liver). The tissue uptake at 2 h came out at 9.88 ± 2.71 %ID/g in series [1] (2 h after injection, 1.85 MBq/200 μL via tail vein, mean ± SD, n = 3, read-out: Distribution in the blood) and 14.8 ± 3.87 %ID/g in series [1] (2 h after injection, 1.85 MBq/200 μL via tail vein, mean ± SD, n = 3, read-out: Distribution in the liver). In addition, the tissue uptake at 4 h came out at 3.17 ± 1.6 %ID/g in series [1] (4 h after injection, 1.85 MBq/200 μL via tail vein, mean ± SD, n = 3, read-out: Distribution in the blood) and 11 ± 2.77 %ID/g in series [1] (4 h after injection, 1.85 MBq/200 μL via tail vein, mean ± SD, n = 3, read-out: Distribution in the liver). Moreover, in series [2] (200 µL labeled peptide (18.5 MBq) in 1.0 mL fresh human serum, 37 °C, 240 min), the “Radiochemical purity after incubation in human serum” value is about 95%. The fraction unbound at 30 min in series [3] (mouse serum, 37 °C, 30 min, 0.37 MBq, acetonitrile precipitation, gamma counter, mean ± SD, read-out: Serum protein binding rate (converted)) was 0.723. In addition, the “Serum protein binding rate” value came to 27.89 ± 2.02% in series [3] (mouse serum, 37 °C, 60 min, 0.37 MBq, acetonitrile precipitation, gamma counter, mean ± SD) and 27.54 ± 0.86% in series [3] (mouse serum, 37 °C, 240 min, 0.37 MBq, acetonitrile precipitation, gamma counter, mean ± SD). For the same compound, the fraction unbound at 120 min in series [3] (mouse serum, 37 °C, 120 min, 0.37 MBq, acetonitrile precipitation, gamma counter, mean ± SD, read-out: Serum protein binding rate (converted)) was 0.75. Moreover, in series [4], the “Visualization of tumors by PET” value is recorded as “not visualized”. Besides, in series [5] (200 µL labeled peptide (18.5 MBq) in 1.0 mL mouse serum, 37 °C, 240 min), the “Radiochemical purity after incubation in mouse serum” value is about 95%.

Take `CC(C)C[C@H](NC(=O)[C@H](CC(=O)O)NC(=O)[C@H](CC(C)C)NC(=O)[C@H](CC(C)C)NC(=O)[C@H](CC(C)C)NC(=O)[C@@H](NC(=O)[C@H](CC(=O)O)NC(=O)[C@@H](NC(=O)[C@@H]1CCCN1C(=O)[C@H](Cc1ccccc1)NC(=O)[C@H](CC(C)C)NC(=O)[C@H](CC(C)C)NC(=O)[C@H](CC(=O)O)NC(=O)[C@H](C)NC(=O)[C@H](Cc1ccc(O)cc1)NC(=O)[C@H](CCCNC(=N)N)NC(=O)[C@H](C)NC(=O)[C@H](Cc1c[nH]c2ccccc12)NC(=O)[C@@H]1CCCN1C(=O)[C@H](CC(N)=O)NC(=O)[C@H](CCC(N)=O)NC(=O)[C@H](CC(=O)O)NC(=O)[C@H](CC(=O)O)NC(=O)[C@H](CS)NC(=O)[C@H](C)NC(=O)CCCCCNC(=S)Nc1ccc(CC2CN(CC(=O)O)CCN(CC(=O)O)CCN2CC(=O)O)cc1)[C@@H](C)O)[C@@H](C)O)C(N)=O` (stereo partly drawn) [^68Ga-YJL-4, metal not drawn] ({X1-Ahx}-ACDDQNPWARYADLLFPTDTLLLDL-NH2): in series [1] (Biodistribution in tumors), the tissue uptake at 1 h came to 5.94 ± 1.27 %ID/g, the tissue uptake at 2 h turned out to be 6.72 ± 1.69 %ID/g and the tissue uptake at 4 h is 4.54 ± 0.58 %ID/g. In series [1] (Distribution in the blood), the tissue uptake at 1 h stood at 19.6 ± 3.92 %ID/g, the tissue uptake at 2 h turned out to be 8.23 ± 3.47 %ID/g and the tissue uptake at 4 h amounted to 3.38 ± 1.91 %ID/g. Besides, in series [1] (Distribution in the liver), the tissue uptake at 1 h is 20.5 ± 3.64 %ID/g, the tissue uptake at 2 h stood at 14.5 ± 3.98 %ID/g and the tissue uptake at 4 h is 10.2 ± 2.77 %ID/g. For the same compound, in series [2], the “Radiochemical purity after incubation in human serum” value is recorded as about 95%. Also, in series [3] (mouse, serum), the fraction unbound at 30 min is 0.678 and the fraction unbound at 120 min was 0.685. Besides, the “Visualization of tumors by PET” value in series [4] is reported as “clearly visualized”. Moreover, in series [5], the “Radiochemical purity after incubation in mouse serum” value is about 95%.
